Laboratory results as given in US20250076311A1 (Chugai, published 2025).

Assays:
[1] = molecular target: T1, cynomolgus monkey FcγRIIIaS extracellular domain with C-terminal His-tag (cynomolgus monkey, UniProt Q8SPW2 21-206 at identity 1.00)); test: SPR, KD(parent SG1)/KD(variant)
T1 construct: also called cyno FcgRIIIaS; cynoFcγRIIIaS
T1 chain: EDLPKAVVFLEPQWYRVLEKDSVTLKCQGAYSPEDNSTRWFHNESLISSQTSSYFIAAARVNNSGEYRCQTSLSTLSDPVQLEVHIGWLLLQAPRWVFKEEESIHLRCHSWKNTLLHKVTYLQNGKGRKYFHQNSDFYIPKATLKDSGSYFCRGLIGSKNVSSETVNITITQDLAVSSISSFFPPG

[2] = molecular target: T2, human FcγRIIb extracellular domain with C-terminal His-tag (human, UniProt P31994 43-217); test: SPR, KD(parent SG1)/KD(variant)
T2 construct: also called human FcgRIIb
T2 sequence: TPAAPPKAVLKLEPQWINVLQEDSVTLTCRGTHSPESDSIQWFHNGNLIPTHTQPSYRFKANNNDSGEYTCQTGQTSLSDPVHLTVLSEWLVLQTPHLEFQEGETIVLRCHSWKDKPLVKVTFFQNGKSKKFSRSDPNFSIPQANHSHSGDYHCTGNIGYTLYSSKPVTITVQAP

[3] = molecular target: T3, cynomolgus monkey FcγRIIIaS extracellular domain with C-terminal His-tag (cynomolgus monkey, UniProt Q8SPW2 21-206 at identity 1.00)); test: SPR; KD of SG1 / KD of variant
T3 construct: also called cyno FcγRIIIaS; FcgRIIIaS
T3 chain: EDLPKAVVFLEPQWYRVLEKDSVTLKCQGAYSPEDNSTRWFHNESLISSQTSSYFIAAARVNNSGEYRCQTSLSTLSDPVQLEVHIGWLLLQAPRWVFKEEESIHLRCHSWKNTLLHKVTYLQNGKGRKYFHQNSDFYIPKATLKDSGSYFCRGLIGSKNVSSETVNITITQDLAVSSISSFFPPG

[4] = molecular target: T4, cynomolgus monkey FcγRIIa3 extracellular domain with C-terminal His-tag (cynomolgus monkey); test: SPR; KD of SG1 / KD of variant
T4 construct: also called cyno FcγRIIa3; FcgRIIa3
T4 chain: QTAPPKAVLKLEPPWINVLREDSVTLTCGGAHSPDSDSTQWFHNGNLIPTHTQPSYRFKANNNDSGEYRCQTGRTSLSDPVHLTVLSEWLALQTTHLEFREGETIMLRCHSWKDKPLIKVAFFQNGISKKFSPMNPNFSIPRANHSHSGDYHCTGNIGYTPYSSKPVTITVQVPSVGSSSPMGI

[5] = molecular target: T5, human FcγRIIaR extracellular domain with C-terminal His-tag (human, UniProt P12318 34-217); test: SPR; KD of SG1 / KD of variant
T5 construct: also called human FcγRIIa (type R); FcgRIIaR
T5 chain: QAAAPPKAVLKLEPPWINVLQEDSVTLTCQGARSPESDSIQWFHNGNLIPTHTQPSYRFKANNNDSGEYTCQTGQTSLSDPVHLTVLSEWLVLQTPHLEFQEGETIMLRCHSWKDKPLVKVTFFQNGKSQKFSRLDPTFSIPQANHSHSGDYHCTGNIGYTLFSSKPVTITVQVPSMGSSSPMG

Row | Binder | KD fold (SG1 = 1) [1] | KD fold (SG1 = 1) [2] | KD fold (SG1 = 1) [3] | KD fold (SG1 = 1) [4] | KD fold (SG1 = 1) [5]
1 | MS1032LO06-SG1012 (antibody, human IgG1, kappa, tied to rows r7/r25 by row order only; also called MS103205H795-SG1012; copies: 2 + 2) heavy: QVTLKESGPVLVKPTETLTLTCTVSGIDLSHDDISWVRQAPGKGLEWVGIISYAGSTYYASWAKGRLTISKDTSKNQVVLTMTNMDPVDTATYYCARGVPAYSHGGDLWGQGTLVTVSSASTKGPSVFPLAPSSKSTSGGTAALGCLVKDYFPEPVTVSWNSGALTSGVHTFPAVLQSSGLYSLSSVVTVPSSSLGTQTYICNVNHKPSNTKVDKKVEPKSCDKTHTCPPCPAPELLNGPSVFLFPPKPKDTLMISRTPEVTCVVVDVSEEDPEVKFNWYVDGVEVHNAKTKPREEQYNSTYRVVSVLTVLHQDWLNGKEYKCKVSNKALPKPIEKTISKAKGQPREPQVYTLPPSREEMTKNQVSLTCLVKGFYPSDIAVEWESNGQPENNYKTTPMVLDSDGSFFLYSKLTVDKSRWQQGNVFSCSVMHEALHAHYTQKSLSLSP light: DIVMTQSPATLSLSPGERATLSCTSSQSVYHANWLSWFQQKPGQPPKLLIYWASTLAYGVPSRFSGSGSGTDFTLTISSLQPEDAATYYCAGGYGGGRYAFGQGTKVEIKRTVAAPSVFIFPPSDEQLKSGTASVVCLLNNFYPREAKVQWKVDNALQSGNSQESVTEQDSKDSTYSLSSTLTLSKADYEKHKVYACEVTHQGLSSPVTKSFNRGEC | 0.11 fold | 0.5 fold | – | – | –
2 | M103205H795-MY229 (heavy chain) with M103202L889-SK1 (light chain) (antibody, human IgG1, kappa, name in EU numbering, Substitutions introduced into M103205H795-SG1; positions in EU numbering) heavy: QVTLKESGPVLVKPTETLTLTCTVSGIDLSHDDISWVRQAPGKGLEWVGIISYAGSTYYASWAKGRLTISKDTSKNQVVLTMTNMDPVDTATYYCARGVPAYSHGGDLWGQGTLVTVSSASTKGPSVFPLAPSSKSTSGGTAALGCLVKDYFPEPVTVSWNSGALTSGVHTFPAVLQSSGLYSLSSVVTVPSSSLGTQTYICNVNHKPSNTKVDKKVEPKSCDKTHTCPPCPAPELLGYPSVFLFPPKPKDTLMISRTPEVTCVVVDVSDEDPEVKFNWYVDGVEVHNAKTKPREELYNSTYRVVSVLTVLHQDWLNGKEYKCKVSNKALPKPIEKTISKAKGQPREPQVYTLPPSREEMTKNQVSLTCLVKGFYPSDIAVEWESNGQPENNYKTTPKVLDSDGSFFLYSKLTVDKSRWQQGNVFSCSVMHEALHNHYTQKSLSLSP light: DIVMTQSPATLSLSPGERATLSCTSSQSVYHANWLSWFQQKPGQPPKLLIYWASTLAYGVPSRFSGSGSGTDFTLTISSLQPEDAATYYCAGGYGGGRYAFGQGTKVEIKRTVAAPSVFIFPPSDEQLKSGTASVVCLLNNFYPREAKVQWKVDNALQSGNSQESVTEQDSKDSTYSLSSTLTLSKADYEKHKVYACEVTHQGLSSPVTKSFNRGEC | – | – | 0.09 fold | 8.9 fold | 13.6 fold
3 | MS1032LO19-SG1071 (antibody, tied to rows r14/r32 by row order only; also called MS103240H795-SG1071; copies: 2 + 2) heavy: QVQLVESGGGLVQPGGSLRLSCAVSGIDLSHDDISWVRQAPGKGLEWVSIISYAGSTYYASWAKGRLTISKDTSKNQVVLTMTNMDPVDTATYYCARGVPAYSHGGDLWGQGTLVTVSSASTKGPSVFPLAPSSKSTSGGTAALGCLVKDYFPEPVTVSWNSGALTSGVHTFPAVLQSSGLYSLSSVVTVPSSSLGTQTYICNVNHKPSNTKVDKKVEPKSCDKTHTCPPCPAPELLNGPSVFLFPPKPKDTLMISRTPEVTCVVVDVSDEDPEVKFNWYVDGVEVHNAKTKPREELYNSTYRVVSVLTVLHRDWLNGKEYKCKVSNKALPKPIEKTISKAKGQPREPQVYTLPPSREEMTKNQVSLTCLVKGFYPSDIAVEWESNGQPENNYKTTPPVLDSDGSFFLYSKLTVKKSRWQQGNVFSCSVLHEALHAHTTRKELSLSP light: DIVMTQSPATLSLSPGERATLSCTTSQSVYHENWLSWFQQKPGQPPKLLIYWASTLAYGVPSRFSGSGSGTDFTLTISSLQPEDAATYYCAGGYGGGRYAFGQGTKVEIKRTVAAPSVFIFPPSDEQLKSGTASVVCLLNNFYPREAKVQWKVDNALQSGNSQESVTEQDSKDSTYSLSSTLTLSKADYEKHKVYACEVTHQGLSSPVTKSFNRGEC | 0.07 fold | 5.7 fold | – | – | –
4 | M103205H795-MY280 (heavy chain) with M103202L889-SK1 (light chain) (antibody, human IgG1, kappa, name in EU numbering, Substitutions introduced into M103205H795-SG1; positions in EU numbering) heavy: QVTLKESGPVLVKPTETLTLTCTVSGIDLSHDDISWVRQAPGKGLEWVGIISYAGSTYYASWAKGRLTISKDTSKNQVVLTMTNMDPVDTATYYCARGVPAYSHGGDLWGQGTLVTVSSASTKGPSVFPLAPSSKSTSGGTAALGCLVKDYFPEPVTVSWNSGALTSGVHTFPAVLQSSGLYSLSSVVTVPSSSLGTQTYICNVNHKPSNTKVDKKVEPKSCDKTHTCPPCPAPELLVGPSVFLFPPKPKDTLMISRTPEVTCVVVDVSDEDPEVKFNWYVDGVEVHNAKTKPREELYNSTYRVVSVLTVLHQDWLNGKEYKCKVSNKALPKPIEKTISKAKGQPREPQVYTLPPSREEMTKNQVSLTCLVKGFYPSDIAVEWESNGQPENNYKTTPPVLDSDGSFFLYSKLTVDKSRWQQGNVFSCSVMHEALHNHYTQKSLSLSP light: DIVMTQSPATLSLSPGERATLSCTSSQSVYHANWLSWFQQKPGQPPKLLIYWASTLAYGVPSRFSGSGSGTDFTLTISSLQPEDAATYYCAGGYGGGRYAFGQGTKVEIKRTVAAPSVFIFPPSDEQLKSGTASVVCLLNNFYPREAKVQWKVDNALQSGNSQESVTEQDSKDSTYSLSSTLTLSKADYEKHKVYACEVTHQGLSSPVTKSFNRGEC | – | – | 0.2 fold | 3.7 fold | –
5 | M103205H795-MY227 (heavy chain) with M103202L889-SK1 (light chain) (antibody, human IgG1, kappa, name in EU numbering, Substitutions introduced into M103205H795-SG1; positions in EU numbering) heavy: QVTLKESGPVLVKPTETLTLTCTVSGIDLSHDDISWVRQAPGKGLEWVGIISYAGSTYYASWAKGRLTISKDTSKNQVVLTMTNMDPVDTATYYCARGVPAYSHGGDLWGQGTLVTVSSASTKGPSVFPLAPSSKSTSGGTAALGCLVKDYFPEPVTVSWNSGALTSGVHTFPAVLQSSGLYSLSSVVTVPSSSLGTQTYICNVNHKPSNTKVDKKVEPKSCDKTHTCPPCPAPELLGYPSVFLFPPKPKDTLMISRTPEVTCVVVDVSDEDPEVKFNWYVDGVEVHNAKTKPREEQYNSTYRVVSVLTVLHQDWLNGKEYKCKVSNKALPKPIEKTISKAKGQPREPQVYTLPPSREEMTKNQVSLTCLVKGFYPSDIAVEWESNGQPENNYKTTPKVLDSDGSFFLYSKLTVDKSRWQQGNVFSCSVMHEALHNHYTQKSLSLSP light: DIVMTQSPATLSLSPGERATLSCTSSQSVYHANWLSWFQQKPGQPPKLLIYWASTLAYGVPSRFSGSGSGTDFTLTISSLQPEDAATYYCAGGYGGGRYAFGQGTKVEIKRTVAAPSVFIFPPSDEQLKSGTASVVCLLNNFYPREAKVQWKVDNALQSGNSQESVTEQDSKDSTYSLSSTLTLSKADYEKHKVYACEVTHQGLSSPVTKSFNRGEC | – | – | 0.09 fold | 6.8 fold | –
